Data: publication PMC3437054

Legend:
[1] = target: PCNA (Saccharomyces cerevisiae) (UniProt P15873); settings: cited from earlier work
[2] = target: Replication factor C (RFC-A/B/C/D/E) (Saccharomyces cerevisiae, UniProt P38630;P40339;P38629;P40348;P38251 1-861;1-323;1-340;1-353;1-354); experiment: stopped-flow TAMRA fluorescence
[3] = target: Replication factor C (RFC-A/B/C/D/E);PCNA (wild type) (Saccharomyces cerevisiae;Saccharomyces …, UniProt P38630;P40339;P38629;P40348;P38251;P15873 1-861;1-323;1-340;1-353;1-354;1-258, |); experiment: fluorescence intensity

RFC (from UniProt P38630)
Kd [1]: 1 nM

B1: 40/65-nt ptDNA-TAMRA (mixed)
DNA 1: ATTTCCTTCAGCAGATAGGAACCATACTGATTCACATGGC
DNA 2: TAGTTAGAACCTAAGCATATTAGTAGCCATGTGAATCAGTATGGTTCCTATCTGCTGAAGGAAAT
modifications: 3' amino linker on primer
binding result [2]: binds | Kd [3]: 1 nM
